Laboratory results from publication PMC8965080 (Frontiers in Microbiology, 2022).

How the values were obtained:
[1] = molecular target: Fdh3A, formate dehydrogenase large (catalytic) subunit (TON_0539) of Thermococcus onnurineus NA1, with N-terminal 6X-His tag (Thermococcus onnurineus NA1)
Fdh3A = molecular target: T1, Fdh3A (Thermococcus onnurineus, UniProt B6YU84); experiment: formate-dependent methyl viologen reduction, absorbance at […] nm; format: biochemical; conditions: 100 mM sodium formate, 2 mM methyl viologen, 0.1 M Tris-HCl pH 8.5, 10% glycerol, 2 mM DTT; anaerobic; turnover only
T1 construct: gene TON_0539; Catalytic subunit alone; N-terminal 6xHis tag; expressed in T. onnurineus MF02 (parent 156T, fdh3 region deleted); one-step TALON IMAC
T1 sequence (B6YU84 1-680): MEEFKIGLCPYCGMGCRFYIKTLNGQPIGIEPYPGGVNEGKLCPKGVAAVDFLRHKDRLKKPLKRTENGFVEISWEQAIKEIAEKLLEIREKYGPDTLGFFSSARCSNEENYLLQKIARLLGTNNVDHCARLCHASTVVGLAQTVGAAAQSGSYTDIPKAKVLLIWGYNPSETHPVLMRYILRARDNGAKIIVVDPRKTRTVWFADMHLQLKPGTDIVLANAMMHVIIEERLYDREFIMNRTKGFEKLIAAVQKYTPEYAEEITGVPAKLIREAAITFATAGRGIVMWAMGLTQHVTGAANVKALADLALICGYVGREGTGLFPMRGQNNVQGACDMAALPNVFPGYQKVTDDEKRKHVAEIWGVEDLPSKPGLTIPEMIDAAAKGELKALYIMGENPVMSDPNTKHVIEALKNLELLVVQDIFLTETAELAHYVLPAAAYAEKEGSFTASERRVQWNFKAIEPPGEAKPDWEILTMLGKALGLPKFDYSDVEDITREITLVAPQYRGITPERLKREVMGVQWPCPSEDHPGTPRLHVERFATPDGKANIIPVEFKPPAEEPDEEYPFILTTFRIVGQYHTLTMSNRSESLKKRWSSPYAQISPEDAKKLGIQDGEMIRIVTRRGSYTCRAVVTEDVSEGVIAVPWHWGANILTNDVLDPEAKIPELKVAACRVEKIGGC

[2] = molecular target: Fdh3A, formate dehydrogenase large (catalytic) subunit (TON_0539) of Thermococcus onnurineus NA1, with N-terminal 6X-His tag (Thermococcus onnurineus NA1); experiment: affinity purification with mass spectrometry; lysate of strain MF01 on TALON IMAC resin (N-terminal 6X-His on Fdh3A), eluted with 300 mM imidazole, then SEC on Superose 6 Increase 10/300 in buffer A (0.1 M Tris-HCl pH 8.0, 150 mM NaCl, 19 mM KCl, 10% glycerol); bands of the SDS-PAGE identified by MALDI mass spectrometry; anaerobic chamber
purified protein [3] = substrate: O=CO; experiment: purified protein; conditions: NADP+ as electron acceptor (2 mM in the standard assay), 0.1 M Tris-HCl pH 8.5, 10% glycerol, 2 mM DTT, anaerobic, optimum 80 °C (temperature of Km assay not stated), catalytic site on Fdh3A (TON_0539)
purified protein [4] = substrate: NC(=O)c1ccc[n+]([C@@H]2O[C@H](COP(=O)(O)OP(=O)(O)OC[C@H]3O[C@@H](n4cnc5c(N)ncnc54)[C@H](OP(=O)(O)O)[C@@H]3O)[C@@H](O)[C@H]2O)c1; experiment: purified protein; format: biochemical, Thermococcus onnurineus; conditions: co-substrate formate (100 mM in the standard assay), 0.1 M Tris-HCl pH 8.5, 10% glycerol, 2 mM DTT, anaerobic, optimum 80 °C (temperature of Km assay not stated), site on Fdh3B (TON_0542) by model

Molecule: ferredoxin Fd0317 (TON_0317) of Thermococcus onnurineus NA1 (from UniProt B6YTB5 1-67) (natural protein)
- formate-dependent ferredoxin-reducing activity of Fdh3A alone (purified from strain MF02), based on the same methyl viologen activity [1]: 16.8 mU/U
- formate-dependent ferredoxin-reducing activity of the purified Fdh3 complex (Fdh3A with Fdh3B, Fdh3G1 and Fdh3G2), based on the same methyl viologen activity [1]: 17.9 mU/U

Molecule: O=CO [formate]
- formate-dependent methyl viologen reduction, absorbance at 578 nm (Fdh3A): The specific activities of formate-dependent methyl viologen reduction of Fdh3 and Fdh3A were similar

Molecule: C[n+]1ccc(-c2cc[n+](C)cc2)cc1 [methyl viologen]
- formate-dependent methyl viologen reduction, absorbance at 578 nm (Fdh3A): The specific activities of formate-dependent methyl viologen reduction of Fdh3 and Fdh3A were similar

Molecule: Fdh3B, NAD(P)-binding protein (TON_0542) of Thermococcus onnurineus NA1 (natural protein)
- stoichiometry N [2]: 1

B1: Fdh3 (Thermococcus onnurineus NA1) (protein)
chain 1: MEEFKIGLCPYCGMGCRFYIKTLNGQPIGIEPYPGGVNEGKLCPKGVAAVDFLRHKDRLKKPLKRTENGFVEISWEQAIKEIAEKLLEIREKYGPDTLGFFSSARCSNEENYLLQKIARLLGTNNVDHCARLCHASTVVGLAQTVGAAAQSGSYTDIPKAKVLLIWGYNPSETHPVLMRYILRARDNGAKIIVVDPRKTRTVWFADMHLQLKPGTDIVLANAMMHVIIEERLYDREFIMNRTKGFEKLIAAVQKYTPEYAEEITGVPAKLIREAAITFATAGRGIVMWAMGLTQHVTGAANVKALADLALICGYVGREGTGLFPMRGQNNVQGACDMAALPNVFPGYQKVTDDEKRKHVAEIWGVEDLPSKPGLTIPEMIDAAAKGELKALYIMGENPVMSDPNTKHVIEALKNLELLVVQDIFLTETAELAHYVLPAAAYAEKEGSFTASERRVQWNFKAIEPPGEAKPDWEILTMLGKALGLPKFDYSDVEDITREITLVAPQYRGITPERLKREVMGVQWPCPSEDHPGTPRLHVERFATPDGKANIIPVEFKPPAEEPDEEYPFILTTFRIVGQYHTLTMSNRSESLKKRWSSPYAQISPEDAKKLGIQDGEMIRIVTRRGSYTCRAVVTEDVSEGVIAVPWHWGANILTNDVLDPEAKIPELKVAACRVEKIGGC
chain 2: MSGMRFAFLCRERPEPTGKKIAVIGAGPAGLAATGYLVCQGHEVHVYDKLPEPGGLMLFGIPEFRIPIYRVREGYEELERVYNVKFFTRTKVYFGNLEGESGDEFVENRVDFKELVEKYDAVLIATGTWKCWIPNIEGAELEGVFPALEYLFRIKSAKLGHMDWGKVTPVEGKKVLVVGAGHTAVDAALESVLLGADKVYLSYRRTIREAPAGAYEINLLQQRGVKWLERTMPVRIIGENGKVRAVELVKTKLSEPDESGRRRPVPIEGSNFQIDVDYVIFAVGQSPTPPFAEEIDIAVDKKGRIVVDNRHMTSREGVFAAGDVVLGPSKVGKAVKDGLYAAEAMHMWLMGR
notes: Tungsten-containing cytoplasmic complex; N-terminal 6xHis tag on TON_0539; overexpressed in T. onnurineus MF01 (fdh1 fdh2 fdh3 deleted), TALON IMAC and SEC; 524 kDa by SEC; TON_0541 not detected
- Km (purified protein [3]): 13.5 mM
- Km (purified protein [4]): 0.040 mM
